From patent publication US7521540B2, “CYR61 compositions and methods” (Munin Corporation, priority 1996, dated 2009)

Tests used:
[1] = tested on: Human Microvascular Endothelial Cells; experiment: Endothelial cell migration, inverted modified Boyden chamber; type: cell-based
Description: In an alternative in vitro assay for angiogenic activity, an assay for endothelial cell migration was developed. […] Primary Human Microvascular Endothelial Cells (HMVEC PO51, Clonetics, San Diego, Calif.) were maintained in DME with 10% donor calf serum (Flow Laboratories, McLean, Va.) and 100 μg/ml endothelial celi mitogen (Biomedical Technologies Inc., Stoughton, Mass.). The cells were used between passages 10 and 15. To measure migration, cells were starved for 24 hours in DME containing 0.1% BSA, harvested, resuspended in DME with 0.1% BSA, and plated at 1.75×10^4 cells/well on the lower surface of a gelatinized 0.5 μm filter (Nucleopore Corporation, Pleasanton. Calif.) in an inverted modified Boyden chamber. After 1-2 hours at 37° C., during which time the cells were allowed to adhere to the filter, the chamber was reverted to its normal position. To the top well of separate chambers, basic Fibroblast Growth Factor (a positive control), Cyr61, or a negative control solution (conditioned medium known to lack chemoattractants or DME plus BSA, see below) was added at concentrations ranging from 10 ng/ml to 10 μg/ml. Chambers were then incubated for 3-4 hours at 37° C. to allow migration. Chambers were disassembled, membranes fixed and stained, and the number of cells that had migrated to the top of the filter in 3 high-powered fields was determined. Tolsma et al., J. Cell. Biol. 122:497-511 (1993) (incorporated by reference), and references cited therein. DME with 0.1% BSA was used as a negative control and either bFGF (10 ng/ml) or conditioned media from angiogenic hamster cell lines (20 μg/ml total protein) were used as positive controls. Rastinejad et al., Cell 56:345-355 (1989). Each sample was tested in quadruplicate (test compound such as Cyr61, positive control, conditioned medium as a negative control, and DME plus BSA as a negative control) in a single experiment; experiments were repeated at least twice.
To allow comparison of experiments performed on different days, migration data is reported as the percent of maximum migration towards the positive control, calculated after subtraction of background migration observed in the presence of DME plus BSA. […] Very high concentrations of thrombospondin (TSP) caused endothelial cells to detach from the membrane. Detachment was detected by counting cells on the lower face of the membrane. When cell loss exceeded 10%, the number of migrated cells was corrected for this loss. […] At 10 ng/ml, Cyr61 induced an average of 64 cells to migrate per three high-powered fields examined.

[2] = tested on: 1064SK primary human foreskin fibroblasts; experiment: Fibroblast adhesion assay (methylene blue, A620); type: cell-based
Description: The ability of Cyr61 to mediate cell adhesion in normal fibroblasts was investigated. Microtiter wells were coated with purified recombinant Cyr61 protein, and 1064SK primary human foreskin fibroblasts were allowed to adhere under serum-free conditions. […] 50 μl cell suspensions were plated on microtiter wells coated with varying concentrations (0.5-5.0 μg/ml) of Cyr61 protein. After incubation at 37° C. for 30 minutes, adherent cells were fixed and stained with methylene blue.
In another experiment, microtiter wells were coated with either BSA, Cyr61 (2 μg/ml), or vitronectin (VN; 0.5 μg/ml) and blocked with affinity-purified anti-Cyr61 antibodies for one hour at 37° C. before 1064SK cells were plated.
The effects of divalent cations in cell adhesion to Cyr61 was also investigated. […] Data are means from triplicate determinations. […] Inhibition by Ca^2+ is characteristic of adhesion through some members of the β1 family of integrins, including receptors that bind type I collagen, laminin, and vitronectin (integrins α2β1, α6β1, and αVβ1) in fibroblasts, as well as the lymphocyte-specific integrin αLβ2.
The effects of RGD peptides on Cyr61-mediated fibroblast binding was tested by plating cells in wells coated with Cyr61 (2 μg/ml). Type I collagen (2 μg/ml) or vitronectin (0.5 μg/ml), 2 mM GRGDSP or GRGESP peptide was then added.
Cells were also pre-incubated with 40 μg/ml monoclonal antibodies against the integrin α5 or the integrin αV subunits at room temperature for 30 minutes, then plated on wells coated with Cyr61 (2 μg/ml), vitronectin (0.5 μg/ml) or fibronectin (FN, 1 μg/ml). […] The data are means, representative of three experiments.
The 1064 SK cells were also analyzed using the monoclonal antibody JBIA, which binds the β1 integrin subunit. Cells were pre-incubated with the antibody (50 μg/ml) before plating on microtiter wells coated with Cyr61 (2 μg/ml), Type I collagen (2 μg/ml), or vitronectin (0.5 μg/ml). […] Data are means, representative of three experiments.
To identify the specific β1 integrin that mediates fibroblast adhesion to Cyr61, the inhibitory effects of function-blocking monoclonal antibodies were tested against various integrin α subunits. […] The data are means, representative of at least three experiments.

B1: Cyr61: Cysteine-rich ECM signaling protein; murine sequence SEQ ID NO:2, recombinant from Baculovirus-infected Sf9 cells (protein, listed as Mus musculus)
chain: MSSSTFRTLAVAVTLLHLTRLALSTCPAACHCPLEAPKCAPGVGLVRDGCGCCKVCAKQLNEDCSKTQPCDHTKGLECNFGASSTALKGICRAQSEGRPCEYNSRIYQNGESFQPNCKHQCTCIDGAVGCIPLCPQELSLPNLGCPNPRLVKVSGQCCEEWVCDEDSIKDSLDDQDDLLGLDASEVELTRNNELIAIGKGSSLKRLPVFGTEPRVLFNPLHAHGQKCIVQTTSWSQCSKSCGTGISTRVTNDNPECRLVKETRICEVRPCGQPVYSSLKKGKKCSKTKKSPEPVRFTYAGCSSVKKYRPKYCGSCVDGRCCTPLQTRTVKMRFRCEDGEMFSKNVMMIQSCKCNYNCPHPNEASFRLYSLFNDIHKFRD
migrated cells per three high-powered fields ([1]; 10 ng/ml): 64 cells | migrated cells per three high-powered fields ([1]; 100 ng/ml): approximately 72 cells | migrated cells per three high-powered fields ([1]; 1 μg/ml): 87 cells | migrated cells per three high-powered fields ([1]; 10 μg/ml): approximately 57 cells | migrated cells per three high-powered fields ([1]; approximately 7 μg/ml): about 61 cells | coating concentration at which maximal adhesion was reached [2]: 1 µg/mL | inhibition by anti-α6 antibody of binding mediated by the coated protein ([2]; anti-α6 20 μg/ml): 78% | 1064SK adhesion, absorbance ([2]; coating 0.5 μg/ml): about 0.3 A620 | 1064SK adhesion, absorbance ([2]; coating 1-5 μg/ml): 0.45-0.55 A620 | support of 1064SK fibroblast adhesion ([2]; protein coated on wells): dose-dependent and saturable
